# Results published in the supplement of paper PMC10724198.
# ± gives the standard deviation of the averaged measurements.
# Tested on: Saccharomyces cerevisiae
# Experiment: protein stability index of tFT-peptide fusion (C-terminal peptide) (PSI (0-1 scale)); higher = more stable (slower turnover)
# Conditions: genetic background: wild type; temperature: 30 C
# 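Further: PSI is a weighted mean of sequencing reads over stability bins, variants kept only with over 10 reads, mCherry proximal and sfGFP distal, peptide attached via GGGS linker.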
row,Sequence,protein stability index
1,PPLPPPLRPPPS,0.685 ± 0.026
2,PPLPPPTSPPRP,0.69 ± 0.038
3,PPLPPSPSVSPR,0.746 ± 0.021
4,PPLPSPLCPQPP,0.714 ± 0.032
5,PPLQRFSYRPGR,0.754 ± 0.069
6,PPLSLPLCLSPL,0.6838 ± 0.0035
7,PPPAPDRATIRR,0.673 ± 0.068
8,PPPAPFSPLPPP,0.7184 ± 0.002
9,PPPAPPPPPPLP,0.7026 ± 0.0022
10,PPPAPPPPPPPP,0.693 ± 0.068
11,PPPAPPPPPTFL,0.688 ± 0.019
12,PPPAPPSPLLSR,0.685 ± 0.1
13,PPPFPSPLPPPP,0.678 ± 0.0097
14,PPPHPLPRPLPT,0.853 ± 0.051
15,PPPHPPPRLPSP,0.604 ± 0.078
16,PPPHPTPPLTSP,0.702 ± 0.058
17,PPPHSPVPPSQS,0.68 ± 0.022
18,PPPLAPPSVPCS,0.604 ± 0.053
19,PPPLFLSPFPPR,0.727 ± 0.015
20,PPPLHPTTLPQP,0.733 ± 0.017
21,PPPLLPAPGSTI,0.662 ± 0.0079
22,PPPLLPASFHLP,0.629 ± 0.0082
23,PPPLPPPAPPPP,0.658 ± 0.025

row,Sequence,protein stability index
1,PPPLPPPLPPPL,0.705 ± 0.05
2,PPPLPRHLRAPP,0.689 ± 0.018
3,PPPLPVFPRPPP,0.682 ± 0.012
4,PPPLSLLPAPPA,0.6953 ± 0.0021
5,PPPLSLSCPFRP,0.712 ± 0.052
6,PPPLSPSTSDHP,0.652 ± 0.019
7,PPPNPPPALPPL,0.664 ± 0.047
8,PPPPAAFFPRSP,0.827 ± 0.11
9,PPPPAPPVPLPL,0.693 ± 0.016
10,PPPPASSFSPPR,0.7366 ± 0.0054
11,PPPPAVPPSPPP,0.645 ± 0.012
12,PPPPFSPAHLPH,0.6993 ± 0.0042
13,PPPPHYPHHTAS,0.738 ± 0.029
14,PPPPLSAPPFSS,0.697 ± 0.051
15,PPPPLYPQPPPT,0.705 ± 0.025
16,PPPPPFLPPTPP,0.622 ± 0.041
17,PPPPPLPLPLPS,0.728 ± 0.066
18,PPPPPLPPPSPF,0.734 ± 0.06
19,PPPPPPLPSLPR,0.678 ± 0.089
20,PPPPPPPAPPLP,0.648 ± 0.044
21,PPPPPPPHSPPS,0.664 ± 0.035
22,PPPPPPPLPPFT,0.681 ± 0.015
23,PPPPPPPPALSS,0.7163 ± 0.0034

row,Sequence,protein stability index
1,PPPPPPPPHLLP,0.658 ± 0.027
2,PPPPPPPPPSSP,0.701 ± 0.057
3,PPPPPPPRALNL,0.687 ± 0.038
4,PPPPPPPTSRPP,0.644 ± 0.03
5,PPPPPPTPAPPP,0.711 ± 0.044
6,PPPPPQSRASSP,0.738 ± 0.022
7,PPPPPRPFLPPP,0.654 ± 0.058
8,PPPPPRPLPPLP,0.695 ± 0.043
9,PPPPPSPAPSLR,0.723 ± 0.052
10,PPPPPSSPPASP,0.653 ± 0.03
11,PPPPPSSPPPPA,0.639 ± 0.099
12,PPPPPTPHTPLL,0.672 ± 0.031
13,PPPPPTPPHQPR,0.79 ± 0.022
14,PPPPPTPSTRTS,0.667 ± 0.015
15,PPPPPVSSPLVT,0.657 ± 0.048
16,PPPPRATLPRPP,0.681 ± 0.044
17,PPPPRPSPPSLP,0.676 ± 0.0058
18,PPPPSCPHSAPL,0.637 ± 0.008
19,PPPPSHPSPPPP,0.654 ± 0.021
20,PPPPSLPTPRPP,0.662 ± 0.012
21,PPPPSPPPILPP,0.64 ± 0.01
22,PPPPSRPPSPGP,0.6691 ± 0.00067
23,PPPPSVCPRFPI,0.785 ± 0.12

row,Sequence,protein stability index
1,PPPPTPLPPPDP,0.68 ± 0.035
2,PPPPTPRYRAPL,0.671 ± 0.057
3,PPPPVLPPPLPP,0.7 ± 0.012
4,PPPPVPRPRLPI,0.648 ± 0.099
5,PPPPYPLPASCL,0.653 ± 0.058
6,PPPPYPSTRHSP,0.6564 ± 0.0021
7,PPPQPPPSPPPP,0.67 ± 0.097
8,PPPQTRPPTPTP,0.741 ± 0.081
9,PPPRARPHAPPL,0.653 ± 0.017
10,PPPRLNPLPPAC,0.731 ± 0.066
11,PPPRLPSRPPPP,0.716 ± 0.032
12,PPPRLRSPHGLF,0.718 ± 0.08
13,PPPRPPLPPPLP,0.692 ± 0.032
14,PPPRPPPPPPVP,0.707 ± 0.041
15,PPPRPRLSRLLH,0.6114 ± 0.0012
16,PPPRSLPPISPV,0.623 ± 0.02
17,PPPRTFSSSFHV,0.6366 ± 0.0043
18,PPPSHLHLPSPA,0.53 ± 0.0095
19,PPPSPPAQSLRS,0.759 ± 0.079
20,PPPSPPSGALTP,0.763 ± 0.053
21,PPPSPSPPPSSP,0.698 ± 0.039
22,PPPSPSTPKTTL,0.6943 ± 0.0068
23,PPPSRPSHPPPA,0.628 ± 0.015

row,Sequence,protein stability index
1,PPPSSPPSPVIR,0.694 ± 0.056
2,PPPTLPPPPPAL,0.711 ± 0.033
3,PPPTLPSPPSPP,0.712 ± 0.011
4,PPPTLYPPPFPP,0.659 ± 0.027
5,PPPTRAPPPKPG,0.621 ± 0.028
6,PPPVPPRFAVRP,0.6678 ± 0.0015
7,PPPWPSLCLPPS,0.706 ± 0.048
8,PPPYAPLPPTWP,0.726 ± 0.023
9,PPPYPFPHLSPL,0.713 ± 0.029
10,PPPYPSYPPRPN,0.724 ± 0.032
11,PPQHRNPAVRRH,0.667 ± 0.023
12,PPRAPLPRPPQP,0.656 ± 0.011
13,PPRAPSPLPPPL,0.704 ± 0.027
14,PPRLDLPFPLSR,0.747 ± 0.08
15,PPRPDRSSLPPF,0.712 ± 0.037
16,PPRPLTPAPSDT,0.682 ± 0.014
17,PPRPPCSPLPPR,0.678 ± 0.052
18,PPRPPPPPAHPP,0.557 ± 0.029
19,PPRPPPPPSPPL,0.745 ± 0.027
20,PPRPPPSSPHLV,0.698 ± 0.023
21,PPRPPRPPPRTP,0.694 ± 0.022
22,PPRPPSPAPPPP,0.687 ± 0.042
23,PPRPRRPLHRSS,0.664 ± 0.011

row,Sequence,protein stability index
1,PPRQPFPPILPS,0.677 ± 0.046
2,PPRQPLSLLLPL,0.6468 ± 0.0016
3,PPRRPPRPPPPA,0.701 ± 0.064
4,PPRRSSLSPPLA,0.6562 ± 0.0027
5,PPRSHKPPQMQT,0.663 ± 0.0082
6,PPRSPRPPPSRP,0.72 ± 0.1
7,PPRTMTLSAPLT,0.708 ± 0.02
8,PPSALPHPPLPP,0.718 ± 0.028
9,PPSARLPPPPPR,0.789 ± 0.12
10,PPSHIPASGTKR,0.716 ± 0.041
11,PPSHPLTIRPPL,0.663 ± 0.014
12,PPSIEAAQPPYF,0.681 ± 0.015
13,PPSLFSSTQLLF,0.7095 ± 0.0067
14,PPSLPLPAPPPP,0.66 ± 0.063
15,PPSLPPPSPAPL,0.682 ± 0.03
16,PPSLPPRPRPPS,0.6411 ± 0.0049
17,PPSPAFTTHLPP,0.576 ± 0.0064
18,PPSPALPPSLPV,0.682 ± 0.032
19,PPSPAPSPPRPL,0.702 ± 0.021
20,PPSPHHPPPPAL,0.753 ± 0.0082
21,PPSPPPARPSPA,0.667 ± 0.041
22,PPSPPPPPAHPP,0.597 ± 0.01
23,PPSPPPPPPPPP,0.6847 ± 0.0032

row,Sequence,protein stability index
1,PPSPPPPPRPPP,0.583 ± 0.019
2,PPSPPPPTGLCL,0.745 ± 0.078
3,PPSPRHPAPQPR,0.679 ± 0.026
4,PPSPRPPPPSPS,0.719 ± 0.1
5,PPSPSLPPPPRS,0.699 ± 0.055
6,PPSRTPFLPPFR,0.691 ± 0.032
7,PPSSPPFLPSRP,0.677 ± 0.031
8,PPSSPPPPLPPS,0.712 ± 0.035
9,PPSVILTSASSR,0.721 ± 0.011
10,PPTHLLRTHPPA,0.68368 ± 0.00032
11,PPTLPPPRTLPL,0.6984 ± 0.0052
12,PPTPPPPSLTPP,0.746 ± 0.027
13,PPTPPRLHRSPP,0.69 ± 0.11
14,PPTPPRPPPRTT,0.69 ± 0.028
15,PPTPRALFPPLP,0.745 ± 0.049
16,PPTTPHPTPTAP,0.689 ± 0.033
17,PPVPPPDLCSAL,0.653 ± 0.068
18,PPVSPPSPRLPL,0.7329 ± 0.0049
19,PPYAPPDHPPFR,0.699 ± 0.03
20,PPYDSSYGILLR,0.7666 ± 0.0053
21,PPYIMCPFTPGG,0.632 ± 0.024
22,PPYPPPHASPAP,0.693 ± 0.039
